Measurements as given in US20200390859A1.

Target: mouse FGFR4/β-klotho complex co-expressed in rat L6 myoblast cells (mouse) (UniProt Q03142)
Experiment: cell-based or functional assay

mouse FGFR4/β-klotho complex co-expressed in rat L6 myoblast cells (mouse), sequence (Q03142 17-799, chain 1 of 2): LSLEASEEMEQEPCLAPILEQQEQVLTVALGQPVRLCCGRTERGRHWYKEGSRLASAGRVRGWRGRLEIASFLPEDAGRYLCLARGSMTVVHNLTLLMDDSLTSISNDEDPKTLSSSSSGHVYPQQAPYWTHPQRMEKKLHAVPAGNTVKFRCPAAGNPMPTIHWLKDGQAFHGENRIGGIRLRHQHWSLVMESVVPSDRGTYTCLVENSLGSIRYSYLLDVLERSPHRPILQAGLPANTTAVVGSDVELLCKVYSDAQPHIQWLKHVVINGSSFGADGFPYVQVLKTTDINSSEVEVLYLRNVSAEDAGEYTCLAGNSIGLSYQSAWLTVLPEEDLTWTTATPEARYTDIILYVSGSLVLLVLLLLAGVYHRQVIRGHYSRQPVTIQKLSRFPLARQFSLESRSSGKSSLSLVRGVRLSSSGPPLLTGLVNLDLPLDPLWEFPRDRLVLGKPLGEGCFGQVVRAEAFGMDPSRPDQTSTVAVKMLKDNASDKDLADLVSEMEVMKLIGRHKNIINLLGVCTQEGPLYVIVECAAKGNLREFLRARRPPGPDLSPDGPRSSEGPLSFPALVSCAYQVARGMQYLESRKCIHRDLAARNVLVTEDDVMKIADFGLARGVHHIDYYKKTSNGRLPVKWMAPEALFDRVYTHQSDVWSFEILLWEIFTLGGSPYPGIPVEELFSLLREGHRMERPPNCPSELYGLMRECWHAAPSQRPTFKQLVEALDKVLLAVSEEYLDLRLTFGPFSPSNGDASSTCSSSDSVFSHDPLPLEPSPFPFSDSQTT
mouse FGFR4/β-klotho complex co-expressed in rat L6 myoblast cells (mouse), sequence (Q99N32 whole entry, chain 2 of 2, further chain): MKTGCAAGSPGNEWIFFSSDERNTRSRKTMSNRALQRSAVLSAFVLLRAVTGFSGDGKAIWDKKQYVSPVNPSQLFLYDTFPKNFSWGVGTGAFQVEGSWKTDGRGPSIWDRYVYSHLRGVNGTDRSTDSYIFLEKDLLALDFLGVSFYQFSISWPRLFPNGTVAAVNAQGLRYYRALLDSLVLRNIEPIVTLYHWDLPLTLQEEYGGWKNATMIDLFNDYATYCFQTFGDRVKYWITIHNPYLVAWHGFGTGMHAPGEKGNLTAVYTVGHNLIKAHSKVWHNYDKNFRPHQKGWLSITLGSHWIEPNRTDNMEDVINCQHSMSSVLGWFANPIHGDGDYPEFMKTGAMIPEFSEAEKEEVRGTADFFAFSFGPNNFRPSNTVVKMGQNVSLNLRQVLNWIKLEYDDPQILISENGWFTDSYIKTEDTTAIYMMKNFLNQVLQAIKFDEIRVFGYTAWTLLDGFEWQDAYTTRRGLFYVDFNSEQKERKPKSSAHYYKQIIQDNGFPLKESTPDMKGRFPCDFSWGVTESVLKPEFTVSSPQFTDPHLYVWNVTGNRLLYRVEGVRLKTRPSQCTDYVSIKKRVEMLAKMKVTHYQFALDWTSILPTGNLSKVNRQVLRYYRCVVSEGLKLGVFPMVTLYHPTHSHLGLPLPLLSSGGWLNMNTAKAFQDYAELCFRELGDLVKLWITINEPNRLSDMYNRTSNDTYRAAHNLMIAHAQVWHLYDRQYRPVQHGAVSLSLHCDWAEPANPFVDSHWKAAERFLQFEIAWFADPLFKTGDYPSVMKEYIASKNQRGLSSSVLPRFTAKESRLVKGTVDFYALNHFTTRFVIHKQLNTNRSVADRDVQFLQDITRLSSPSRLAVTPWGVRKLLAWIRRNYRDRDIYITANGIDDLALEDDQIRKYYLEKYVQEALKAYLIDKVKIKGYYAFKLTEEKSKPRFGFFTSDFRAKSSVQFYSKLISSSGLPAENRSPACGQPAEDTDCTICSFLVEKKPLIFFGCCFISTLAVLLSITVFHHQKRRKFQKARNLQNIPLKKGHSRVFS

EC50 (pM), ELK1 luciferase reporter in L6 cells transfected with mouse FGFR4 and β-klotho: 52.5 pM | Emax (fold potentiation), ELK1 luciferase reporter in L6 cells transfected with mouse FGFR4 and β-klotho (fold potentiation): 1.82
Substance: FGF19 (human fibroblast growth factor 19, wild type) (from UniProt O95750 25-216) (ligand)
